± gives the half width of the 95% confidence interval.
Assays:
[1] = folding stability dG unfold from chymotrypsin proteolysis; higher = more stable
Outline: (§1)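 Mini-proteins designed to be under 80 residues and free of cysteine were carried in a PA-tagged cDNA display construct and digested with trypsin and with chymotrypsin. Each protease was applied at 11 threefold-diluted concentrations, alongside a no-protease condition, before sequencing. K50 came from Bayesian fitting of the sequencing counts, and unfolding free energy was obtained by comparing it with a sequence-predicted unfolded-state K50 and a shared folded-state K50, for each protease separately or for both together. Designs were retained only if their AlphaFold2 dimer inter-PAE exceeded 15.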

[2] = folding stability dG unfold (combined trypsin and chymotrypsin); higher = more stable
Outline: as §1

[3] = folding stability dG unfold from trypsin proteolysis; higher = more stable
Outline: as §1

Sequence	folding stability dG unfold [1] [kcal/mol]	folding stability dG unfold [2] [kcal/mol]	folding stability dG unfold [3] [kcal/mol]
SAGGSAPEDNYVVLIFIDISIEWKPKYDEDNGKNRIEFEWKLEIDIPTIVLPPDDPEAKDLLEDLLSAGGSA [r15_470_TrROS]	3.35 ± 0.14	2.94 ± 0.12	2.29 ± 0.067
SAGGSAPEIPTDALVRVRDPNSDKWYEATVLEARKLPGGELVYLIRLTKDGNEELVPTDLATVELKSAGGSA [r15_62_JUSTAS]	1.53 ± 0.12	1.29 ± 0.098	1.05 ± 0.08
SAGGSAPIRIIKDPEKGTIMIRVPGPITVNQELKLRDENGKPWEIKNVEVERVGGRLIITMKVEPASAGGSA [r15_838_TrROS]	1.24 ± 0.19	1.29 ± 0.11	1.19 ± 0.052
SAGGSAPKIRVEIEIDPDNGTIKLEVQHDGKPVFEMTMRIDPNGKIKEMKFTFYVDPDNGKLEIMMSAGGSA [r15_770_TrROS]	4.59 ± 0.26	4.43 ± 0.17	3.68 ± 0.25
SAGGSAPLPAREFADEIMKKSPGPVEITVVFKEPDEYYVAKITMNPNNGKPQIKVERIPPEDLKKLSAGGSA [r15_156_TrROS]	0.626 ± 0.23	0.467 ± 0.23	0.42 ± 0.065
SAGGSAPNKWKTVDIEFMFPPDNLEEFVDEISKLPGIKASIEPVEYDPEGMYWMKIDITIPPGMKISAGGSA [r15_441_TrROS]	1.74 ± 0.12	1.64 ± 0.21	1.16 ± 0.048
SAGGSAPPDTPLATIEFTLTPPDGSTTPTTITVPPSVVEEAAAAQKAAFEAAGWATTVTVATTTPLSAGGSA [r2_274_JUSTAS]	0.246 ± 0.1	0.526 ± 0.034	0.676 ± 0.015
SAGGSAPPFYIAINPDKPKSIHIMPPGSPDMRDDDGSKVIPFRTEEEFLKLIQEIKKKGVDKIHIYSAGGSA [r15_1004_TrROS]	0.744 ± 0.24	0.413 ± 0.24	-0.0618 ± 0.18
SAGGSAPPIEIEIDKWERDPENGYVYATVKIKLPGKKIEIPIWMDDPPGQAENQVKMLAENIARQLSAGGSA [r15_979_TrROS]	1.39 ± 0.11	1.11 ± 0.13	0.807 ± 0.082
SAGGSAPPKRRERIIQIPIKMKPGQTADEMVDNIADWIMDLLPPDMRIEIEVEYHPENGWIMVKIESAGGSA [r15_739_TrROS]	2.09 ± 0.084	1.63 ± 0.3	1.21 ± 0.089
SAGGSAPPNLQIDIQINPGHGYIEVSVQIPGRHVKASAKLTEPGQLKMDIEFPGNGKEIDITIPISSAGGSA [r15_837_TrROS]	2.61 ± 0.072	2.37 ± 0.15	2.04 ± 0.14
SAGGSAPPPGSTQVIVVEKRDAPPEEAAQEIADEIKEKYPNTSVEVQEEEVPPGEPVVRVTVYIPPSAGGSA [r15_916_JUSTAS]	0.945 ± 0.15	0.559 ± 0.48	0.845 ± 0.14
SAGGSAPPPNTIPIRVKIEDKNGKWETITFPVKSGDDAKDFLNDNFPNVKVEYDPGAGWVTIEVPKSAGGSA [r15_313_TrROS]	0.2 ± 0.094	-0.0942 ± 0.44	-0.868 ± 0.29
SAGGSAPRIRVHFWNPNTGQWHHIPVERLKKAIDKNPPGEELEFPIPGYPVKVQVEPDDGTIWIRMSAGGSA [r15_350_TrROS]	1.17 ± 0.25	1.19 ± 0.16	1.01 ± 0.061
SAGGSAPRVVRVETVTLTPPADSTVTARLLRLETPEGPRYVLAVRDPSTPVVVARPVPEGATLLEESAGGSA [r15_75_TrMRF]	-0.124 ± 0.1	-0.237 ± 0.11	-0.581 ± 0.23
SAGGSAPVVEYEFVDPGNGRKVKIEVYPHPDGNYQMSIEVYDPGKPVEKIPFWMPPGEMPIEDLLKSAGGSA [r15_147_TrROS]	0.565 ± 0.24	0.565 ± 0.13	0.528 ± 0.059
SAGGSAPWRPITITIPGSWEEIKELAKKFVNDGNIRDVEVEPVPDPGYYKVTVWVRDPNGNWYLVFSAGGSA [r15_177_TrROS]	3.204 ± 0.031	2.9 ± 0.2	2.23 ± 0.16
SAGGSAPWVTLPIIIMFDSPEQAVEEVKPIFQELFGIKDVNVEEEPMPNGMVFVPIEITIPAENMKSAGGSA [r15_173_TrROS]	1.38 ± 0.07	1.09 ± 0.092	0.547 ± 0.061
SAGGSARRPFNVEAWYPPGRSADNVADELASHFFGIKIDDVEVEPNPDNGYYKIEATIRIPPDWLKSAGGSA [r15_930_TrROS]	0.528 ± 0.29	0.33 ± 0.18	0.0136 ± 0.36
SAGGSARVIRNPDYGMWIRLQPTDGGYTVQIEMYRPDPEDGKPKRRPMTHTIPPDDLPPEIRDLLKSAGGSA [r15_703_TrROS]	0.515 ± 0.12	0.573 ± 0.07	0.442 ± 0.1
SAGGSARYYFIVIEIWQPGKPVKFIIVVPKEDPKKFESEINEMFPGYNIDIKVIPFPSPEEAEDLFSAGGSA [r15_889_TrROS]	2.97 ± 0.088	2.74 ± 0.17	2.26 ± 0.1

Sequence	folding stability dG unfold [1] [kcal/mol]	folding stability dG unfold [2] [kcal/mol]	folding stability dG unfold [3] [kcal/mol]
SAGGSASDVVPIDKKITITLPGGEKYEVTEMTVLPDGTVKMKIIKKSPNGNPTEEEITLSPEELVDLSAGGS [r16_498_JUSTAS]	2.594 ± 0.021	2.47 ± 0.058	2.26 ± 0.083
SAGGSASGYYTTTTVEIEPEGDTLTTVTTTTLGVPVTFDPVNNTLTLNLPPDQSLVTTTTVTEVAASAGGSA [r15_1040_JUSTAS]	0.857 ± 0.033	0.976 ± 0.055	1.02 ± 0.04
SAGGSASLESEDVEEVSTSTSVVPLPDGGTATVTTTTYRHKEPGTLVTRTTTTFPGGATTTTVTLLSAGGSA [r15_188_JUSTAS]	2.04 ± 0.022	1.91 ± 0.025	1.69 ± 0.039
SAGGSASLFIPVPPTDTSPVTVEITIGNSKYRATLTVDPNNPNLMTVTLTDPNGGATTTETVPLLDSAGGSA [r15_328_JUSTAS]	1.78 ± 0.031	1.79 ± 0.069	1.8 ± 0.034
SAGGSASMKIRVYTISLYRPDGESVRDVPIVVPENEPDVDPEALAKAIADELGLVKVEISEEIVPLSAGGSA [r15_333_JUSTAS]	1.4 ± 0.31	1.14 ± 0.18	0.589 ± 0.097
SAGGSASMPLTLTFTTPTRTFTVTIPPSKVSSVTVEEKGPTITVTVEAPDSTITINITPSSVTISASAGGSA [r15_598_JUSTAS]	4.19 ± 0.13	3.8 ± 0.12	2.98 ± 0.13
SAGGSASMTIVPVKSEEELEAYIKTKNPKVFLLPLPDGTELVVKVNVDDPSKIEKVSLSKPEEILLSAGGSA [r15_11_JUSTAS]	0.664 ± 0.16	0.622 ± 0.25	0.228 ± 0.12
SAGGSASMTTKRPVSPELRAKVEAAAAAGDPAITVTLPVTLPDGRTVTLTVTKDPTADTFTATVVSSAGGSA [r15_700_JUSTAS]	0.367 ± 0.3	0.221 ± 0.22	0.0823 ± 0.33
SAGGSASNIKTEEKEYPDGKVVVKYSSDPNITYVYYYPPGGLELVETLDSNGNVISKKLVPKGKLISAGGSA [r15_419_JUSTAS]	0.959 ± 0.097	0.832 ± 0.06	0.607 ± 0.049
SAGGSASPAVSSEEEVEALVEELRKKGYEVLSVERTEIPGEDVTDYTIPIRDPSNGKLSTLTLTAGSAGGSA [r15_123_JUSTAS]	0.538 ± 0.15	0.585 ± 0.12	0.508 ± 0.037
SAGGSASSMPVTLTLLLTRPDGTPLTLPFEAETLEEAIERGTALAQELIAELGDPNMKITGLEVVPSAGGSA [r15_698_JUSTAS]	1.44 ± 0.092	1.22 ± 0.1	0.904 ± 0.067
SAGGSASSSLEVEVTAESPDPETGELRVTAVITTTYFDPSTGSTSTTTTTLTLTPEELAALVAALSSAGGSA [r2_357_JUSTAS]	4.35 ± 0.049	4.332 ± 0.043	3.92 ± 0.071
SAGGSASTVTRTRTIPGSGLTVEITETPLPDGTYSYTVTFYAPDSALKTTPKTAAPDELPEEELLSSAGGSA [r15_147_JUSTAS]	1.48 ± 0.042	1.1 ± 0.06	0.35 ± 0.049
SAGGSASVEIIFDPNKPTVTIYVPGPVDPNEPITLTLPGGPSLTITEIEVEKIGKEYVVKAKVTKLSAGGSA [r15_838_JUSTAS]	2.12 ± 0.03	1.8 ± 0.051	1.14 ± 0.04
SAGGSASVEVSVEEKDGTLTVTVTVEVDGKLVTVTVTLTLPPPPPLSAEELEKAREAEKEGKTVEVSAGGSA [r15_631_TrROS_Hall]	2.77 ± 0.16	2.49 ± 0.11	1.24 ± 0.12
SAGGSASVKVEETVEFLPGGVVKTTTRTFFPDGTVTTTDTVTALPPVPVYDISSPENLSPALERLASAGGSA [r15_1018_JUSTAS]	1.16 ± 0.026	0.909 ± 0.052	0.543 ± 0.028
SAGGSASVTRMIQIPPGDPNMSIEEAIEKIKIYLPNGKPVTIEIDRIWPDPNRYFFMITIKDGKPVSAGGSA [r15_331_TrROS]	2.28 ± 0.13	1.86 ± 0.15	1.21 ± 0.088
SAGGSATIEEIANMPAEEIAQEHGMEVKDVDIERVPNGTITVEVEYEPPDGKKHKHTFQIKIDEGQSAGGSA [r15_805_TrROS]	0.251 ± 0.11	0.284 ± 0.2	0.089 ± 0.1
SAGGSATLTLPEDVVKEVFTAKVGDKEYRPVVFRSPDDEWVLVLVLRRDPNGNTSAVAALLPKDAVSAGGSA [r15_986_TrMRF]	1.8 ± 0.16	1.64 ± 0.13	1.49 ± 0.047
SAGGSATSIEYESPGVVETVSFTREPDGTLTVTVTVREPNGPVLKTLPTTETLPPDAGVTASVPLPSAGGSA [r15_950_JUSTAS]	0.921 ± 0.13	0.529 ± 0.18	0.0919 ± 0.16
SAGGSATVEVATEPDGTVTVTTLETDPAEPRGTVTTTTVTVTTEPTPEPFLSSSTTTTTTATAPAPSAGGSA [r15_438_JUSTAS]	-0.291 ± 0.075	-0.0573 ± 0.059	0.138 ± 0.048

From the supplement of paper PMC12764529
